Measurements: patent US9957308B2, “Method for detecting bilirubin using a fluorescent protein” (RIKEN, priority 2013, dated 2018)
Numbering of substitutions follows the chain as printed.

Tests used:
[1] = biological target: T1, Japanese eel (Anguilla japonica) UnaG, wild type, SEQ ID NO: 1 (Anguilla japonica, UniProt P0DM59); experiment: Dissociation constant by bilirubin titration of apo UnaG (fluorescence at 527 nm, curve fitting); assay type: binding; conditions: wild-type apo UnaG 5 nM, titrated with bilirubin to 10 nM
T1 construct: GST (N, cleaved yes); made in house; host or cells: Escherichia coli BL21 (DE3)
T1 sequence (P0DM59 whole entry): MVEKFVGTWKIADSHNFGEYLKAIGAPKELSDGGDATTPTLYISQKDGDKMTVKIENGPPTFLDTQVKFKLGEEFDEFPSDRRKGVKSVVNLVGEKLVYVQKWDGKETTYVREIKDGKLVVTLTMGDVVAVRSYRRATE
From the text: The capacity of binding to bilirubin can be evaluated through calculation of dissociation constant (Kd) by curve-fitting of correlation between the amount of bilirubin and the fluorescence intensity of UnaG protein. In one instance, “reduced capacity of binding to bilirubin compared to UnaG” means that the dissociation constant, Kd, is larger than that of UnaG.
The dissociation constant can be calculated by a known method, for example, by the following computation expression: Y=[Kd+Bt+Pt−{(Kd+Bt+Pt}^1/2]/(2×Pt) where Y represents the degree of binding of bilirubin (fluorescence intensity); Kd represents the dissociation constant; Bt represents the concentration of bilirubin; and Pt represents the concentration (5 nM) of apo UnaG protein.
(§1) An apo UnaG protein solution having an apo UnaG protein concentration of 5 nM was titrated with bilirubin to give a final concentration of bilirubin of 10 nM, and the fluorescence spectrum was measured with a fluorescence spectrophotometer.
Apo A12ES80N mutant protein was titrated with bilirubin, and the fluorescence intensity was measured with a spectrophotofluorometer F-2500 (Hitachi High-Technologies Corporation). The results were plotted. Data analysis and fitting with graph plotting software Origin (OriginLab Corporation) were performed to determine the dissociation constant (Kd). […]

[2] = biological target: T2, Japanese eel (Anguilla japonica) UnaG variant A12ES80N (A12E, S80N), SEQ ID NO: 29 (Anguilla japonica, UniProt P0DM59, A12E/S80N); experiment: Dissociation constant by bilirubin titration of apo A12ES80N mutant (fluorescence, curve fitting); assay type: binding
T2 construct: made in house; host or cells: Escherichia coli JM109 (DE3)
T2 sequence (P0DM59 whole entry A12E/S80N): as the sequence (P0DM59 whole entry) above, with A12E, S80N counted along it
Description: as §1
A DNA fragment of A12ES80N mutant was ligated into BamHI and EcoRI restriction enzyme sites of pRSETB-FLAG vector, which was Escherichia coli expression vector pcRSETB including a FLAG tag sequence (SEQ ID NO: 26) at the KpnI/BamHI restriction enzyme sites, and was transformed into Escherichia coli strain JM109 (DE3) for subcloning. […]
The bacterial cells were suspended in 5 mL of PBS, and 50 μL of lysozyme (4 mg/mL) was added thereto. […] Subsequently, His-FLAG-UnaG mutant protein was eluted by adding each 500 μL of PBS containing 300 mM imidazole to the carrier, and the elution fraction was detected by a bradford method. […] The concentration of the purified His-FLAG-UnaG mutant protein was determined by the following computation expression based on the absorbance A280. […]
Apo A12ES80N mutant protein was titrated with bilirubin, and the fluorescence intensity was measured with a spectrophotofluorometer F-2500 (Hitachi High-Technologies Corporation). […]

[3] = biological target: T1, Japanese eel (Anguilla japonica) UnaG, wild type, SEQ ID NO: 1; experiment: Fluorescence of apo UnaG reconstructed with bilirubin or bilirubin analogs (ligand specificity); assay type: biochemical; conditions: apo UnaG 0.5 μM; ligand 0.125-2.0 μM; room temperature 30 min; excitation 497 nm, fluorescence 527 nm
Description: FIG. 5 is a graph showing specificity of UnaG protein in Example of the present invention to unconjugated bilirubin. Apo UnaG (0.5 μM) was mixed with a ligand: bilirubin (unconjugated) at various concentrations or a bilirubin analog, biliverdin, urobilin, or ditaurobilirubin, at various concentrations, and the fluorescence intensity at each concentration was measured. The vertical axis indicates fluorescence intensity, and the horizontal axis indicates concentration (μM) of each ligand.
Bilirubin or a bilirubin analog, biliverdin (Toronto Research Chemicals), urobilin (MP Biomedicals), or ditaurobilirubin (Frontier Scientific), was diluted with PBS such that the final concentration was 0.125 μM, 0.25 μM, 0.5 μM, 1.0 μM, or 2.0 μM and was mixed with 0.5 μM apo UnaG protein. The mixture was left to stand at room temperature for 30 min. Subsequently, 200 μL of the mixture was added to each well of a 96 well microplate (Greiner Bio-One) and was subjected to measurement of the fluorescence intensity at a wavelength of 527 nm with excitation light having a wavelength of 497 nm using EnSpire multi-mode plate reader (PerkinElmer Co., Ltd.).

[4] = Measurement of fluorescence spectrum, absorption spectrum, quantum yield and fluorescence lifetime; assay type: physicochemical
Description: In order to analyze the fluorescent properties of UnaG protein, the fluorescence spectrum, absorption spectrum, and quantum yield were measured. The excitation spectrum and the fluorescence spectrum were measured with a spectrophotofluorometer, RF-5300PC (Shimadzu Corporation), at an excitation wavelength of 475 nm and a fluorescence wavelength of 550 nm. The absorption spectrum was measured with a spectrophotometer, U-2900 (Hitachi High-Technologies Corporation). The quantum yield was measured with an absolute quantum yield measurement system, Quantaurus-QY (Hamamatsu Photonics K.K.) at excitation wavelengths of 470 nm and 480 nm. A known fluorescent protein, EGFP, was similarly measured, and the values were compared to those of UnaG protein.
In order to analyze the fluorescent properties of R82EK84E mutant, the fluorescence spectrum, absorption spectrum, and quantum yield were measured. The measurement was performed by the same method as that described in the above-described paragraph 3. The fluorescence lifetime was measured with a small-sized fluorescence lifetime measurement system, Quantaurus-Tau (Hamamatsu Photonics K.K.) and was compared to that of wild-type UnaG protein.
The fluorescence spectrum, absorption spectrum, and quantum yield (excitation wavelength: 470 nm) were measured for analyzing the fluorescent properties of holo A12ES80N mutant protein. The measurement was performed by the same method as that described in paragraph 3, above. The fluorescent properties were compared to those of wild-type UnaG protein.

[5] = Evaluation of aggregability of protein by dynamic light scattering particle diameter; assay type: physicochemical
Description: Protein solutions (each 20 μL) of wild-type UnaG protein (10 mg/mL) and R82EK84E mutated UnaG protein (8.5 mg/mL) were each supplied to Microtrac particle size analyzer MT3000II (Nikkiso Co., Ltd.), and the particle diameters were measured by a dynamic light scattering. The aggregability was evaluated by plotting frequency against particle diameter.

[6] = Table 3, wild-type vs R82EK84E mutant
[7] = Table 3, wild-type vs R82EK84E mutant, holo form reconstructed with bilirubin
[8] = Table 4, wild-type vs holo A12ES80N mutant

C=CC1=C(C)/C(=C/c2[nH]c(Cc3[nH]c(/C=C4\NC(=O)C(C)=C4C=C)c(C)c3CCC(=O)O)c(CCC(=O)O)c2C)NC1=O [bilirubin]
Kd [1]: 0.098 nM | Kd [2]: 1.9 nM | fluorescence emission of UnaG on addition of ligand [3]: the fluorescence of UnaG is specific to bilirubin

B1: R82EK84E mutant: UnaG with 82nd amino acid R and 84th amino acid K substituted by E; SEQ ID NO: 5 (protein, listed as Anguilla japonica)
chain: MVEKFVGTWKIADSHNFGEYLKAIGAPKELSDGGDATTPTLYISQKDGDKMTVKIENGPPTFLDTQVKFKLGEEFDEFPSDEREGVKSVVNLVGEKLVYVQKWDGKETTYVREIKDGKLVVTLTMGDVVAVRSYRRATE
Molar extinction coefficient [4, 6]: 50,870 M^−1 cm^−1 | Quantum yield [4, 6]: 61% | Maximum excitation wavelength [4, 7]: 498 nm | Maximum fluorescence wavelength [4, 7]: 527 nm | Fluorescence lifetime (τ1/ns) ([4]; Table 3, wild-type vs R82EK84E mutant, Quantaurus-Tau): 2.2 ns | dispersibility / aggregation compared to the wild-type [5]: improved dispersibility | particle diameter distribution (peaks) ([5]; wild-type 10 mg/mL, R82EK84E mutant 8.5 mg/mL): single peak

B2: A12ES80N mutant: UnaG variant with substitution of A at 12th position to E and S at 80th position to N; SEQ ID NO: 29 (protein, listed as Anguilla japonica)
chain: B1 chain with A12E, S80N, E82R, E84K
Maximum excitation wavelength [4, 8]: 499 nm | Maximum fluorescence wavelength [4, 8]: 527 nm | Molar extinction coefficient [4, 8]: 56,210 M^−1 cm^−1 | Quantum yield ([4]; Table 4, excitation wavelength 470 nm): 46.8%
